Values belong to the binder of their own block, whether it stands above or below them.
Key:
Bcl-2, P10415 [1] = molecular target: T1, Bcl-2, P10415; assay: fluorescence polarisation, direct titration of receptor into 10 nM labelled peptide
T1 chain: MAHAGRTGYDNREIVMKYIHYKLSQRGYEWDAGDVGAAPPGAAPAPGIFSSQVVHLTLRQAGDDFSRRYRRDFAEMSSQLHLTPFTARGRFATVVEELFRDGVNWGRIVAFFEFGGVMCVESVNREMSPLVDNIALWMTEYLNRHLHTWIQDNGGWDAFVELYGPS

Bcl-xL, Q07817 [2] = assay: as above
Bcl-w, Q92843 [3] = molecular target: T2, Bcl-w, Q92843; assay: as above
T2 chain: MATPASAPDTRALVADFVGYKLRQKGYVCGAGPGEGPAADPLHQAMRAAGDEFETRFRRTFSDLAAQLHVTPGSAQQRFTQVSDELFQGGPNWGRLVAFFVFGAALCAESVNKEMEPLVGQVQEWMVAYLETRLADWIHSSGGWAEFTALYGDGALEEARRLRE

Mcl-1, Q07820 [4] = molecular target: T3, Mcl-1, Q07820; assay: as above
T3 chain: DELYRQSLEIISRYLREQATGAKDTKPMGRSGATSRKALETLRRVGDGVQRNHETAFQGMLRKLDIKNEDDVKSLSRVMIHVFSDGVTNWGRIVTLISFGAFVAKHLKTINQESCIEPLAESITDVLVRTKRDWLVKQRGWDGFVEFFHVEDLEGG

Bfl-1, Q16548 [5] = molecular target: T4, Bfl-1, Q16548; assay: as above
T4 chain: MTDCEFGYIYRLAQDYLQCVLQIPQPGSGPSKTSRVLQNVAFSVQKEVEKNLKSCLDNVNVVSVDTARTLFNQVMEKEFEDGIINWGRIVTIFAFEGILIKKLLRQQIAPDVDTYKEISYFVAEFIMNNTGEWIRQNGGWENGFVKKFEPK

Bcl-xL, Q07817 [6] = assay: peptide SPOT array, c-Myc-tagged receptor at 1 uM or 100 nM, anti-c-Myc-Cy3
Bcl-w, Q92843 [7] = molecular target: T2, Bcl-w, Q92843; assay: as above
Mcl-1, Q07820 [8] = molecular target: T3, Mcl-1, Q07820; assay: as above
Bcl-2, P10415 [9] = assay: as above
Target sequence in this assay (P10415 1-217): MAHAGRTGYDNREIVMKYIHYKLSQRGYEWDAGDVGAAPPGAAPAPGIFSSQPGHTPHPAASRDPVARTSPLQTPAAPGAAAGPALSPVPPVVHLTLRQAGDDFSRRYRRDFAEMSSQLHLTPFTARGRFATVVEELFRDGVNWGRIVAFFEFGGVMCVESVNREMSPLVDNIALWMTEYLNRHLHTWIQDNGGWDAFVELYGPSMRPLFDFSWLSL

Bfl-1, Q16548 [10] = molecular target: T4, Bfl-1, Q16548; assay: as above
[11] = molecular target: PXT1 BH3-like peptide (human); assay: fluorescence polarisation; direct binding: 10 nM FAM-labeled peptide, receptor serially diluted; 25°C; 20 mM NaPO4, 50 mM NaCl, 1 mM EDTA, 0.001% Triton X, pH 7.8; single-site binding model

Bcl-xL, Q07817, sequence (Q07817 1-209): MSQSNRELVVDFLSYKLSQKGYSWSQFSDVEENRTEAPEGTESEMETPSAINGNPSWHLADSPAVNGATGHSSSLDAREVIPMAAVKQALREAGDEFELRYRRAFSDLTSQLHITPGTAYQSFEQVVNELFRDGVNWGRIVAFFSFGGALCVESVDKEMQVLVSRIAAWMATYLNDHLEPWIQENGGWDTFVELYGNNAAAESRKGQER

B2: CCNH (peptide)
chain: RYPILENPEILRKTADDFLNRIALTD
Kd (Bcl-2, P10415 [1]): 7130 nM
Kd (Bcl-xL, Q07817 [2]): > 5720 nM
Kd (Bcl-w, Q92843 [3]): 1920 nM
Kd (Mcl-1, Q07820 [4]): > 4000 nM
Kd (Bfl-1, Q16548 [5]): > 9620 nM
SPOT signal as a fraction of Bim BH3's signal on the same receptor and array (Bcl-xL, Q07817 [6]): 0.06
SPOT signal as a fraction of Bim BH3's signal on the same receptor and array (Bcl-w, Q92843 [7]): 0.24
SPOT signal as a fraction of Bim BH3's signal on the same receptor and array (Mcl-1, Q07820 [8]): 0.02
SPOT signal as a fraction of Bim BH3's signal on the same receptor and array (Bcl-2, P10415 [9]): 0.04
SPOT signal as a fraction of Bim BH3's signal on the same receptor and array (Bfl-1, Q16548 [10]): 0.02

B3: TUBB4Q (peptide)
chain: FTGNNTAVQELKRVSEQFTATFRRKA
Kd (Bcl-2, P10415 [1]): 1410 nM
Kd (Bcl-xL, Q07817 [2]): 2050 nM
Kd (Bcl-w, Q92843 [3]): 2490 nM
Kd (Mcl-1, Q07820 [4]): 1460 nM
Kd (Bfl-1, Q16548 [5]): > 4660 nM
SPOT signal as a fraction of Bim BH3's signal on the same receptor and array (Bcl-xL, Q07817 [6]): 0.93
SPOT signal as a fraction of Bim BH3's signal on the same receptor and array (Bcl-w, Q92843 [7]): 0.92
SPOT signal as a fraction of Bim BH3's signal on the same receptor and array (Mcl-1, Q07820 [8]): 0.41
SPOT signal as a fraction of Bim BH3's signal on the same receptor and array (Bcl-2, P10415 [9]): 0.19
SPOT signal as a fraction of Bim BH3's signal on the same receptor and array (Bfl-1, Q16548 [10]): 0.8

B5: TRIM58 (peptide)
chain: KSRLVQQSKALKELADELQERCQRPA
Kd (Bcl-2, P10415 [1]): 975 nM
Kd (Bcl-xL, Q07817 [2]): 4550 nM
Kd (Bcl-w, Q92843 [3]): 361 nM
Kd (Mcl-1, Q07820 [4]): > 6070 nM
Kd (Bfl-1, Q16548 [5]): > 4660 nM
SPOT signal as a fraction of Bim BH3's signal on the same receptor and array (Bcl-xL, Q07817 [6]): 0.29
SPOT signal as a fraction of Bim BH3's signal on the same receptor and array (Bcl-w, Q92843 [7]): 0.29
SPOT signal as a fraction of Bim BH3's signal on the same receptor and array (Mcl-1, Q07820 [8]): 0.05
SPOT signal as a fraction of Bim BH3's signal on the same receptor and array (Bcl-2, P10415 [9]): 0.06
SPOT signal as a fraction of Bim BH3's signal on the same receptor and array (Bfl-1, Q16548 [10]): 0.11

B6: Bfl-1 (natural protein)
chain: MTDCEFGYIYRLAQDYLQCVLQIPQPGSGPSKTSRVLQNVAFSVQKEVEKNLKSCLDNVNVVSVDTARTLFNQVMEKEFEDGIINWGRIVTIFAFEGILIKKLLRQQIAPDVDTYKEISYFVAEFIMNNTGEWIRQNGGWENGFVKKFEPKSGWMTFLEVTGKICEMLSLLKQYC
Kd [11]: < 30 nM

B7: AGBL2 (peptide)
chain: SSLSDGLPVHLANIADELTQKKKMFK
Kd (Bcl-2, P10415 [1]): > 100000 nM
Kd (Bcl-xL, Q07817 [2]): > 4000 nM
Kd (Bcl-w, Q92843 [3]): 5870 nM
Kd (Mcl-1, Q07820 [4]): > 5020 nM
Kd (Bfl-1, Q16548 [5]): > 4660 nM
SPOT signal as a fraction of Bim BH3's signal on the same receptor and array (Bcl-xL, Q07817 [6]): 0.25
SPOT signal as a fraction of Bim BH3's signal on the same receptor and array (Bcl-w, Q92843 [7]): 0.74
SPOT signal as a fraction of Bim BH3's signal on the same receptor and array (Mcl-1, Q07820 [8]): 0.11
SPOT signal as a fraction of Bim BH3's signal on the same receptor and array (Bcl-2, P10415 [9]): 0.105
SPOT signal as a fraction of Bim BH3's signal on the same receptor and array (Bfl-1, Q16548 [10]): 0.15

B9: Bcl-w (natural protein)
chain: MATPASAPDTRALVADFVGYKLRQKGYVCGAGPGEGPAADPLHQAMRAAGDEFETRFRRTFSDLAAQLHVTPGSAQQRFTQVSDELFQGGPNWGRLVAFFVFGAALCAESVNKEMEPLVGQVQEWMVAYLETQLADWIHSSGGWAEFTALYGDGALEEARRLREGNWASVRTVLTGAVALGALVTVGAFFASK
Kd [11]: < 30 nM

B10: ARHGAP4 (peptide)
chain: EVLAGPLAQRLSHIAEDVGRLVKKSR
Kd (Bcl-2, P10415 [1]): 6090 nM
Kd (Bcl-xL, Q07817 [2]): 3060 nM
Kd (Bcl-w, Q92843 [3]): 749 nM
Kd (Mcl-1, Q07820 [4]): > 2430 nM
Kd (Bfl-1, Q16548 [5]): > 5600 nM
SPOT signal as a fraction of Bim BH3's signal on the same receptor and array (Bcl-xL, Q07817 [6]): 0.4
SPOT signal as a fraction of Bim BH3's signal on the same receptor and array (Bcl-w, Q92843 [7]): 0.94
SPOT signal as a fraction of Bim BH3's signal on the same receptor and array (Mcl-1, Q07820 [8]): 0.28
SPOT signal as a fraction of Bim BH3's signal on the same receptor and array (Bcl-2, P10415 [9]): 0.1
SPOT signal as a fraction of Bim BH3's signal on the same receptor and array (Bfl-1, Q16548 [10]): 0.4

The remaining binders from weak to strong by Kd (Bcl-2, P10415 [1]), led by results:

Kd (Bcl-2, P10415 [1]): 562 nM
Kd (Bcl-xL, Q07817 [2]): 2720 nM
Kd (Bcl-w, Q92843 [3]): > 4000 nM
Kd (Mcl-1, Q07820 [4]): > 10000 nM
Kd (Bfl-1, Q16548 [5]): > 4000 nM
SPOT signal as a fraction of Bim BH3's signal on the same receptor and array (Bcl-xL, Q07817 [6]): 0.11
SPOT signal as a fraction of Bim BH3's signal on the same receptor and array (Bcl-w, Q92843 [7]): 0.02
SPOT signal as a fraction of Bim BH3's signal on the same receptor and array (Mcl-1, Q07820 [8]): 0.02
SPOT signal as a fraction of Bim BH3's signal on the same receptor and array (Bcl-2, P10415 [9]): 0.01
SPOT signal as a fraction of Bim BH3's signal on the same receptor and array (Bfl-1, Q16548 [10]): 0.02
B4: NUB1 (peptide)
chain: TDENKKVGLALKDLAKQYSDRLECCE

Kd (Bcl-2, P10415 [1]): 124 nM
Kd (Bcl-xL, Q07817 [2]): 679 nM
Kd (Bcl-w, Q92843 [3]): 2490 nM
Kd (Mcl-1, Q07820 [4]): 592 nM
Kd (Bfl-1, Q16548 [5]): 1900 nM
SPOT signal as a fraction of Bim BH3's signal on the same receptor and array (Bcl-xL, Q07817 [6]): 0.34
SPOT signal as a fraction of Bim BH3's signal on the same receptor and array (Bcl-w, Q92843 [7]): 0.2
SPOT signal as a fraction of Bim BH3's signal on the same receptor and array (Mcl-1, Q07820 [8]): 0.44
SPOT signal as a fraction of Bim BH3's signal on the same receptor and array (Bcl-2, P10415 [9]): 0.38
SPOT signal as a fraction of Bim BH3's signal on the same receptor and array (Bfl-1, Q16548 [10]): 0.49
B1: TRPM7 (peptide)
chain: FERVEQMCIQIKEVGDRVNYIKRSLQ

Kd (Bcl-2, P10415 [1]): 14 nM
Kd (Bcl-xL, Q07817 [2]): 8 nM
Kd (Bcl-w, Q92843 [3]): 5 nM
Kd (Mcl-1, Q07820 [4]): 0.9 nM
Kd (Bfl-1, Q16548 [5]): 1 nM
SPOT signal as a fraction of Bim BH3's signal on the same receptor and array (Bcl-xL, Q07817 [6]): 0.26
SPOT signal as a fraction of Bim BH3's signal on the same receptor and array (Bcl-w, Q92843 [7]): 0.99
SPOT signal as a fraction of Bim BH3's signal on the same receptor and array (Mcl-1, Q07820 [8]): 0.9
SPOT signal as a fraction of Bim BH3's signal on the same receptor and array (Bcl-2, P10415 [9]): 0.13
SPOT signal as a fraction of Bim BH3's signal on the same receptor and array (Bfl-1, Q16548 [10]): 0.99
B8: PXT1 (peptide)
chain: EEIIHKLAMQLRHIGDNIDHRMVRED

Reference: article PMC4072508, “Genome-Wide Prediction and Validation of Peptides That Bind Human Prosurvival Bcl-2 Proteins” (PLoS Computational Biology, 2014)
